# Results as given in US20040175364A1.
# Target: Adenovirus 5 receptor (cell surface fiber receptor on HeLa cells)
# Test: cell-based or functional assay
substance,measurement,value
Adenovirus 5 fiber protein (from UniProt P11818 1-581) (ligand),percentage of adenoviral transduction of HeLa cells by Av1LacZ4 (β-galactosidase positive cells) after preincubation with competitor fiber,0.1 to 1 pg/mL
